Laboratory results: publication PMC4215650 (Nature, 2014)

B1: Bmi1(2-109), as it stands in the crystal (domain or fragment)
chain: HRTTRIKITELNPHLMCVLCGGYFIDATTIIECLHSFCKTCIVRYLETSKYCPICDVQVHKTRPLLNIRSDKTLQDIVYKLVPGLFKNEMKRRRDFYAAHPSADAANG
B2: Ring1B(2-116), as it stands in the crystal (domain or fragment)
chain: SQAVQTNGTQPLSKTWELSLYELQRTPQEAITDGLEIVVSPRSLHSELMCPICLDMLKNTMTTKECLHRFCADCIITALRSGNKECPTCRKKLVSKRSLRPDPNFDALISKIYPS

Key:
Assay in all cases: crystal structure
[1] = biological target: B2
[2] = biological target: histone H4, Xenopus, in the nucleosome core particle (Xenopus, UniProt P62799 2-103)
[3] = biological target: histone H2B, Xenopus, in the nucleosome core particle (Xenopus, UniProt P02281 5-126)

Binder | binding result [1] | binding result [2] | binding result [3]
B1 | binds | binds | binds
B2 | – | – | binds
